The text below walks through data of article PMC2896254 (Biopolymers, 2009).

Where two headings read alike, the source gives them in different places. The star is where a group is joined. MBP = 4-(maleimido)benzophenone, alkylating the Cys, O=C(c1ccccc1)c1ccc(N2C(=O)CC(*)C2=O)cc1; Biotin = O=C1N[C@H]2[C@H](CS[C@H]2CCCCC(=O)*)N1

What all share (experiment): pull-down
Assay [1] concerns the target T1, Wild-type full-length Ffh carrying an N-terminal deca-His tag (E. coli, UniProt P0AGD7 1-453).
T1 sequence (looked up): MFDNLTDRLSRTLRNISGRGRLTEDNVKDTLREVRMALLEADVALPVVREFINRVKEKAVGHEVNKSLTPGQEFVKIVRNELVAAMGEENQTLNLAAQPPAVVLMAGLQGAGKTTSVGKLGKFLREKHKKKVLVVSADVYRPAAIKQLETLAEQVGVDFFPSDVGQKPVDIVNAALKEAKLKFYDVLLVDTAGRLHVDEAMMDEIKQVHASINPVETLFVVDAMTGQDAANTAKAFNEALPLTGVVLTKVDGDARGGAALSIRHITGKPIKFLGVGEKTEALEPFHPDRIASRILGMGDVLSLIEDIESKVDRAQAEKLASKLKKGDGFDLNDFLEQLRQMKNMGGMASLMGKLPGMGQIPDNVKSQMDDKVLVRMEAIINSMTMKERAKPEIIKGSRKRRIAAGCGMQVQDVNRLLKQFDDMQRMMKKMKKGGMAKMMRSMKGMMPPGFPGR

Assay [2] deals with T2, His-tagged M domain of Ffh (M297 to R453) (E. coli, UniProt P0AGD7 297-453).
T2 sequence (looked up): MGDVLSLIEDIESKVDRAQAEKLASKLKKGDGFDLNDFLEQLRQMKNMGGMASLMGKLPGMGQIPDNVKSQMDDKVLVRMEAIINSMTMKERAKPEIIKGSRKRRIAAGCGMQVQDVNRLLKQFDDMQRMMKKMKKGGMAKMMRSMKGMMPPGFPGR

Assay [3] deals with T3, His-tagged NG domain of Ffh (residues M1 to V300) (E. coli, UniProt P0AGD7 1-300).
T3 sequence (looked up): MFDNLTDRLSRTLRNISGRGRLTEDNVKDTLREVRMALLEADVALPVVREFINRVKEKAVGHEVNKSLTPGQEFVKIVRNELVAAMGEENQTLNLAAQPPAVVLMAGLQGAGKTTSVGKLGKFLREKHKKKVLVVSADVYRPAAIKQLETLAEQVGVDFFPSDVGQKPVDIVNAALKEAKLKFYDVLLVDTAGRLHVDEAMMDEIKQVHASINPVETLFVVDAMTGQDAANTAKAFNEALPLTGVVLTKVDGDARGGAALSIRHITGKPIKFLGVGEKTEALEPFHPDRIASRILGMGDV

In assay [4] the target is T1, Wild-type full-length Ffh carrying an …. This is another data set of the same source.

B1: BioPhoAC10 (peptide)
peptide: Biotin-MKQKKKLALCLLLLLLTPVTKA-NH2
SMILES: CSCC[C@H](NC(=O)CCCC[C@@H]1SC[C@@H]2NC(=O)N[C@@H]21)C(=O)N[C@@H](CCCCN)C(=O)N[C@@H](CCC(N)=O)C(=O)N[C@@H](CCCCN)C(=O)N[C@@H](CCCCN)C(=O)N[C@@H](CCCCN)C(=O)N[C@@H](CC(C)C)C(=O)N[C@@H](C)C(=O)N[C@@H](CC(C)C)C(=O)N[C@@H](CS)C(=O)N[C@@H](CC(C)C)C(=O)N[C@@H](CC(C)C)C(=O)N[C@@H](CC(C)C)C(=O)N[C@@H](CC(C)C)C(=O)N[C@@H](CC(C)C)C(=O)N[C@@H](CC(C)C)C(=O)N[C@H](C(=O)N1CCC[C@H]1C(=O)N[C@H](C(=O)N[C@H](C(=O)N[C@@H](CCCCN)C(=O)N[C@@H](C)C(N)=O)[C@@H](C)O)C(C)C)[C@@H](C)O
Regarding B1, the binding result in assay [1] is recorded as “binds”.

B2: BioPhoAC11-BP (peptide)
peptide: Biotin-MKQKKKLALLC(MBP)LLLLLTPVTKA-NH2
SMILES: CSCC[C@H](NC(=O)CCCC[C@@H]1SC[C@@H]2NC(=O)N[C@@H]21)C(=O)N[C@@H](CCCCN)C(=O)N[C@@H](CCC(N)=O)C(=O)N[C@@H](CCCCN)C(=O)N[C@@H](CCCCN)C(=O)N[C@@H](CCCCN)C(=O)N[C@@H](CC(C)C)C(=O)N[C@@H](C)C(=O)N[C@@H](CC(C)C)C(=O)N[C@@H](CC(C)C)C(=O)N[C@@H](CSC1CC(=O)N(c2ccc(C(=O)c3ccccc3)cc2)C1=O)C(=O)N[C@@H](CC(C)C)C(=O)N[C@@H](CC(C)C)C(=O)N[C@@H](CC(C)C)C(=O)N[C@@H](CC(C)C)C(=O)N[C@@H](CC(C)C)C(=O)N[C@H](C(=O)N1CCC[C@H]1C(=O)N[C@H](C(=O)N[C@H](C(=O)N[C@@H](CCCCN)C(=O)N[C@@H](C)C(N)=O)[C@@H](C)O)C(C)C)[C@@H](C)O
For the molecule B2, the binding result in assay [1] is “binds”.

B3: BioPhoAC11 (peptide)
peptide: Biotin-MKQKKKLALLCLLLLLTPVTKA-NH2
SMILES: CSCC[C@H](NC(=O)CCCC[C@@H]1SC[C@@H]2NC(=O)N[C@@H]21)C(=O)N[C@@H](CCCCN)C(=O)N[C@@H](CCC(N)=O)C(=O)N[C@@H](CCCCN)C(=O)N[C@@H](CCCCN)C(=O)N[C@@H](CCCCN)C(=O)N[C@@H](CC(C)C)C(=O)N[C@@H](C)C(=O)N[C@@H](CC(C)C)C(=O)N[C@@H](CC(C)C)C(=O)N[C@@H](CS)C(=O)N[C@@H](CC(C)C)C(=O)N[C@@H](CC(C)C)C(=O)N[C@@H](CC(C)C)C(=O)N[C@@H](CC(C)C)C(=O)N[C@@H](CC(C)C)C(=O)N[C@H](C(=O)N1CCC[C@H]1C(=O)N[C@H](C(=O)N[C@H](C(=O)N[C@@H](CCCCN)C(=O)N[C@@H](C)C(N)=O)[C@@H](C)O)C(C)C)[C@@H](C)O
Take B3: the binding result in assay [1], in assay [2] and in assay [3] was “binds” each time.

B4: BioPhoAC13 (peptide)
peptide: Biotin-MKQKKKLALLLLCLLLTPVTKA-NH2
SMILES: CSCC[C@H](NC(=O)CCCC[C@@H]1SC[C@@H]2NC(=O)N[C@@H]21)C(=O)N[C@@H](CCCCN)C(=O)N[C@@H](CCC(N)=O)C(=O)N[C@@H](CCCCN)C(=O)N[C@@H](CCCCN)C(=O)N[C@@H](CCCCN)C(=O)N[C@@H](CC(C)C)C(=O)N[C@@H](C)C(=O)N[C@@H](CC(C)C)C(=O)N[C@@H](CC(C)C)C(=O)N[C@@H](CC(C)C)C(=O)N[C@@H](CC(C)C)C(=O)N[C@@H](CS)C(=O)N[C@@H](CC(C)C)C(=O)N[C@@H](CC(C)C)C(=O)N[C@@H](CC(C)C)C(=O)N[C@H](C(=O)N1CCC[C@H]1C(=O)N[C@H](C(=O)N[C@H](C(=O)N[C@@H](CCCCN)C(=O)N[C@@H](C)C(N)=O)[C@@H](C)O)C(C)C)[C@@H](C)O
Regarding B4, the binding result in assay [4] is “binds”.

B5: BioPhoAC12 (peptide)
peptide: Biotin-MKQKKKLALLLCLLLLTPVTKA-NH2
SMILES: CSCC[C@H](NC(=O)CCCC[C@@H]1SC[C@@H]2NC(=O)N[C@@H]21)C(=O)N[C@@H](CCCCN)C(=O)N[C@@H](CCC(N)=O)C(=O)N[C@@H](CCCCN)C(=O)N[C@@H](CCCCN)C(=O)N[C@@H](CCCCN)C(=O)N[C@@H](CC(C)C)C(=O)N[C@@H](C)C(=O)N[C@@H](CC(C)C)C(=O)N[C@@H](CC(C)C)C(=O)N[C@@H](CC(C)C)C(=O)N[C@@H](CS)C(=O)N[C@@H](CC(C)C)C(=O)N[C@@H](CC(C)C)C(=O)N[C@@H](CC(C)C)C(=O)N[C@@H](CC(C)C)C(=O)N[C@H](C(=O)N1CCC[C@H]1C(=O)N[C@H](C(=O)N[C@H](C(=O)N[C@@H](CCCCN)C(=O)N[C@@H](C)C(N)=O)[C@@H](C)O)C(C)C)[C@@H](C)O
Turning to B5, the binding result in assay [4] is “binds”.

B6: BioPhoAC14 (peptide)
peptide: Biotin-MKQKKKLALLLLLCLLTPVTKA-NH2
SMILES: CSCC[C@H](NC(=O)CCCC[C@@H]1SC[C@@H]2NC(=O)N[C@@H]21)C(=O)N[C@@H](CCCCN)C(=O)N[C@@H](CCC(N)=O)C(=O)N[C@@H](CCCCN)C(=O)N[C@@H](CCCCN)C(=O)N[C@@H](CCCCN)C(=O)N[C@@H](CC(C)C)C(=O)N[C@@H](C)C(=O)N[C@@H](CC(C)C)C(=O)N[C@@H](CC(C)C)C(=O)N[C@@H](CC(C)C)C(=O)N[C@@H](CC(C)C)C(=O)N[C@@H](CC(C)C)C(=O)N[C@@H](CS)C(=O)N[C@@H](CC(C)C)C(=O)N[C@@H](CC(C)C)C(=O)N[C@H](C(=O)N1CCC[C@H]1C(=O)N[C@H](C(=O)N[C@H](C(=O)N[C@@H](CCCCN)C(=O)N[C@@H](C)C(N)=O)[C@@H](C)O)C(C)C)[C@@H](C)O
For B6, the binding result in assay [4] is “binds”.
